Data taken from US20220242962A1 (APTEVO RESEARCH AND DEVELOPMENT, published 2022).

How the values were obtained:
[1] = target: T1, Full-length Human OX40 (human, UniProt P43489 29-277); assay: cell-based or functional assay
T1 sequence: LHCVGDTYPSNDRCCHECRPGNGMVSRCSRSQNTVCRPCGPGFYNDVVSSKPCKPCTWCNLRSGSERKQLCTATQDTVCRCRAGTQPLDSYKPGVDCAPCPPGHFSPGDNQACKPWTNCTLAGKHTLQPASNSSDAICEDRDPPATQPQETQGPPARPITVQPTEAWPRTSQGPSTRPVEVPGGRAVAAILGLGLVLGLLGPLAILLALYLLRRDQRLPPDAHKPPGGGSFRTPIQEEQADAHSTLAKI

[2] = target: Full-length Human 4-1BB (human, UniProt Q07011 24-255); assay: cell-based or functional assay
[3] = target: T2, Human OX40 ECD-AFH (human); assay: SPR (Biacore 8K), construct captured, monovalent ECD
T2 construct: ECD'; entry includes the C-terminal tags; also called OXF003; Human OX40 ECD-avi-flag-his
T2 chain: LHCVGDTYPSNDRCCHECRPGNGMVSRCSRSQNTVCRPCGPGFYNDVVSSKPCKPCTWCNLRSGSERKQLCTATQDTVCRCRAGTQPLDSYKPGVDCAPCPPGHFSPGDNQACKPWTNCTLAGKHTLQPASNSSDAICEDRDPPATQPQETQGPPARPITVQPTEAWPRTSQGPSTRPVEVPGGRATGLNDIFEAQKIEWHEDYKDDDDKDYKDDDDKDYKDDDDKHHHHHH
Protocol: (§1) Mouse anti-human IgG (GE, BR-1008-39) at 25 μg/ml in 10 mM sodium acetate pH 5.0 was immobilized at a density of ˜10,000 response units (RU) onto each flow cell of a CM5 research-grade sensor chip (GE) by standard amine coupling chemistry. Each binding protein at approximately 100 nM in HBS-EP+ with 0.2% BSA buffer was captured in a flow cell with the immobilized anti-human IgG at a flow rate of 10 μL/min for 20 seconds, leaving one flow cell surface unmodified as the reference. Using a single-cycle kinetics mode, five different concentrations of ECD were sequentially injected through each flow cell at 30 μL/min for 300 seconds followed by a 600 second dissociation period. Regeneration was achieved by injection of 3 M MgCl₂ at a flow rate of 30 μL/min for 30 seconds followed by HBS-EP+ with 0.2% BSA buffer stabilization for 1 min.
(§2) Sensorgrams obtained from kinetic SPR measurements were analyzed by the double subtraction method. The signal from the reference flow cell was subtracted from the analyte binding response obtained from flow cells with immobilized or captured ligands. Buffer reference responses were then averaged from multiple injections. The averaged buffer reference responses were then subtracted from analyte binding responses, and the final double-referenced data were analyzed with Biacore T200 Evaluation software (2.0, GE), globally fitting data to derive kinetic parameters. All sensorgrams were fitted using a simple one-to-one binding model.
(§3) Using the BIACORE 8K SPR system, the affinity of these constructs for human and cyno 4-1BB, and human and cyno OX40 ECD, were determined using the methods described above. Monovalent binding affinity was determined by capturing the ADAPTIR™ bispecific construct on the chip and injecting monovalent ECD of the target at multiple concentrations.

[4] = target: T3, Cyno OX40-AFH (cynomolgus monkey); assay: as above
T3 construct: entry includes the tags; also called OXF005; cyno OX40 ECD
T3 chain: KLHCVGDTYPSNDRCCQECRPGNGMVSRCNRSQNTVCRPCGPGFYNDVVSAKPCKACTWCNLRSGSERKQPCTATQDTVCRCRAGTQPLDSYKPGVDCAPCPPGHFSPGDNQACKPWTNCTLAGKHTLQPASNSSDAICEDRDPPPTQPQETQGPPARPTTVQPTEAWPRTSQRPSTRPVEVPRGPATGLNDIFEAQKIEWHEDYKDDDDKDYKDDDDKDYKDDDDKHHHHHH
Protocol: as §1, §2, §3

[5] = target: T4, Human 4-1BB ECD-AFH (human); assay: as above
T4 construct: entry includes the tags; also called FOB003; HUMAN CD137 ECD-AVI-FLAG-HIS
Protocol: as §1, §2, §3

[6] = target: T5, Cyno 4-1BB ECD-AFH (cynomolgus monkey); assay: as above
T5 construct: entry includes the tags; also called FOB004; Cyno CD137 ECD-avi-flag-his
T5 chain: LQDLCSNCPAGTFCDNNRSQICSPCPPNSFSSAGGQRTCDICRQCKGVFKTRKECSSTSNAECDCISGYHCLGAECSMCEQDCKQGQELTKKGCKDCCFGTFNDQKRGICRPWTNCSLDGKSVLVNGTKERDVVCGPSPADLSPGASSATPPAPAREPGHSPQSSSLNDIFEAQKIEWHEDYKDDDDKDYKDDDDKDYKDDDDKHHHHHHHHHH
Protocol: as §1, §2, §3

[7] = target: T6, Full-length Cyno 4-1BB (cynomolgus monkey, UniProt Q07011 24-255 (human entry)); assay: flow cytometry on Jurkat cells transfected with cynomolgus 4-1BB, goat anti-human Fc secondary antibody, MFI (Mean)
T6 construct: on Jurkat or CHO cells; also called FOB006; cynomolgus 4-1BB
T6 chain: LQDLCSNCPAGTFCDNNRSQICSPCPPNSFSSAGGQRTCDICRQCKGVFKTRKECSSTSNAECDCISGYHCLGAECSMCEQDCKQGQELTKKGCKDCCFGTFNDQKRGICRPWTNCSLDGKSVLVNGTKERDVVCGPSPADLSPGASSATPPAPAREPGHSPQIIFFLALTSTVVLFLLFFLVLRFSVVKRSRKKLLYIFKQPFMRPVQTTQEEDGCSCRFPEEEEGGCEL
Protocol: (§4) Serial dilutions of ADAPTIR™ constructs were incubated with transfected target cells and subsequently labelled with a fluorescently-conjugated goat-a-human Fc secondary antibody. […] (See Example 25.)

[8] = target: T7, Full-length Cyno OX40 (cynomolgus monkey, UniProt P43489 29-277 (human entry)); assay: flow cytometry on CHOK1SV cells transfected with cynomolgus OX40, goat anti-human Fc secondary antibody, MFI (Mean)
T7 construct: on CHO-K1SV cells; also called OXF004; cynomolgus OX40
T7 chain: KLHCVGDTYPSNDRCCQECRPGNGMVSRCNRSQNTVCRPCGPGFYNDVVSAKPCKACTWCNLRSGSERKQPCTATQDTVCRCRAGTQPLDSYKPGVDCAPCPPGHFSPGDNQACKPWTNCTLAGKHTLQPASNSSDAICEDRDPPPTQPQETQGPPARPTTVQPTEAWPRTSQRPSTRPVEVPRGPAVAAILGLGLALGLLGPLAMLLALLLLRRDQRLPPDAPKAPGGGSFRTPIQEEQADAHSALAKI
Protocol: as §4

B1: FXX01110 (bispecific antibody)
chain: EVQLVQSGAEVKKPGASVKVSCKASGYTFTSYWMNWVRQAPGQGLEWMGNIYPSGGSTNYAQKFQGRVTMTVDTSTSTVYMELSSLRSEDTAVYYCASFSDGYYAYAMDYWGQGTLVTVSSGGGGSGGGGSGGGGSGGGGSEIVMTQSPATLSLSPGERATLSCRASQSVSSYLNWYQQKPGQAPRLLIYYASRRHTGIPARFSGSGSGTDFTLTISSLQPEDFAVYYCQQGYNLPYTFGQGTKVEIKEPKSSDKTHTCPPCPAPPAAAPSVFLFPPKPKDTLMISRTPEVTCVVVDVSHEDPEVKFNWYVDGVEVHNAKTKPREEQYNSTYRVVSVLTVLHQDWLNGKEYKCAVSNKALPAPIEKTISKAKGQPREPQVYTLPPSRDELTKNQVSLTCLVKGFYPSDIAVEWESNGQPENNYKTTPPVLDSDGSFFLYSKLTVDKSRWQQGNVFSCSVMHEALHNHYTQKSLSLSPGGGGSPSSYVLTQPPSVSVAPGQTARITCGGNNIGSKSVNWFQQKPGQAPVLVVYDDSGRPSGIPARFSGSTSGNTATLTISRVEAGDEADYYCQVWDSSSDHVVFGGGTKLTVLGGGGSGGGGSGGGGSGGGGSQVQLVESGGGVVQPGRSLRLSCAASGFTLSYYGMHWVRQAPGKGLEWVAAISHDGSDKYYADSVKGRFTISRDNSKNTLYLQMNSLRAEDTAVYYCSNDQFDPWGQGTLVTVSSR
notes: ADAPTIR anti-4-1BB x anti-OX40, pI variant of the anti-OX40 scFv
- OX40 Reporter Assay EC50 [1]: 0.017 nM
- OX40 Reporter Assay Max induction [1]: 5.9e+06
- 4-1BB Reporter Assay EC50 [2]: 0.021 nM
- 4-1BB Reporter Assay Max induction [2]: 1.38e+06
- Kd [3]: < 1 nM
- koff [3]: 0.00036 s⁻¹
- kon [3]: 910000 M⁻¹ s⁻¹
- Kd [4]: < 1 nM
- koff [4]: 0.00029 s⁻¹
- kon [4]: 1.1e+06 M⁻¹ s⁻¹
- Kd [5]: 18 nM
- koff [5]: 0.0048 s⁻¹
- kon [5]: 260000 M⁻¹ s⁻¹
- Kd [6]: 70 nM
- koff [6]: 0.0077 s⁻¹
- kon [6]: 110000 M⁻¹ s⁻¹
- EC50 (read off the curve) [7]: ~0.3 nM
- EC50 (read off the curve) [8]: 1 to 2 nM

B2: FXX01113 (bispecific antibody)
chain: EVQLVQSGAEVKKPGASVKVSCKASGYTFTSYWMNWVRQAPGQGLEWMGNIYPSGGSTNYAQKFQGRVTMTVDTSTSTVYMELSSLRSEDTAVYYCASFSDGYYAYAMDYWGQGTLVTVSSGGGGSGGGGSGGGGSGGGGSEIVMTQSPATLSLSPGERATLSCRASQSVSSYLNWYQQKPGQAPRLLIYYASRRHTGIPARFSGSGSGTDFTLTISSLQPEDFAVYYCQQGYNLPYTFGQGTKVEIKEPKSSDKTHTCPPCPAPPAAAPSVFLFPPKPKDTLMISRTPEVTCVVVDVSHEDPEVKFNWYVDGVEVHNAKTKPREEQYNSTYRVVSVLTVLHQDWLNGKEYKCAVSNKALPAPIEKTISKAKGQPREPQVYTLPPSRDELTKNQVSLTCLVKGFYPSDIAVEWESNGQPENNYKTTPPVLDSDGSFFLYSKLTVDKSRWQQGNVFSCSVMHEALHNHYTQKSLSLSPGGGGSPSSYVLTQPPSVSVAPGQTARITCGGNNIGSKSVNWFQQKPGQAPVLVVYDDSGRPSGIPARFSGSTSGNTATLTISRVEAGDEADYYCQVWDSSSDHVVFGGGTKLTVLGGGGSGGGGSGGGGSGGGGSQVQLVESGGGVVQPGRSLRLSCAASGFTLSYYGMHWVRQAPGKGLEWVAAISHDGSDKYYADSVKGRFTISRDNSKNRLYLQMNSLRAEDTAVYYCSNDQFDPWGQGTLVTVSSR
notes: ADAPTIR anti-4-1BB x anti-OX40, pI variant
- OX40 Reporter Assay EC50 [1]: 0.016 nM
- OX40 Reporter Assay Max induction [1]: 6.1e+06
- 4-1BB Reporter Assay EC50 [2]: 0.019 nM
- 4-1BB Reporter Assay Max induction [2]: 1.37e+06
- Kd [3]: < 1 nM
- koff [3]: 0.00031 s⁻¹
- kon [3]: 890000 M⁻¹ s⁻¹
- Kd [4]: < 1 nM
- koff [4]: 0.00028 s⁻¹
- kon [4]: 980000 M⁻¹ s⁻¹
- Kd [5]: 15 nM
- koff [5]: 0.0046 s⁻¹
- kon [5]: 300000 M⁻¹ s⁻¹
- Kd [6]: 82 nM
- koff [6]: 0.0078 s⁻¹
- kon [6]: 95000 M⁻¹ s⁻¹
- EC50 (read off the curve) [7]: ~0.3 nM
- EC50 (read off the curve) [8]: 1 to 2 nM

B3: FXX01112 (bispecific antibody)
chain: EVQLVQSGAEVKKPGASVKVSCKASGYTFTSYWMNWVRQAPGQGLEWMGNIYPSGGSTNYAQKFQGRVTMTVDTSTSTVYMELSSLRSEDTAVYYCASFSDGYYAYAMDYWGQGTLVTVSSGGGGSGGGGSGGGGSGGGGSEIVMTQSPATLSLSPGERATLSCRASQSVSSYLNWYQQKPGQAPRLLIYYASRRHTGIPARFSGSGSGTDFTLTISSLQPEDFAVYYCQQGYNLPYTFGQGTKVEIKEPKSSDKTHTCPPCPAPPAAAPSVFLFPPKPKDTLMISRTPEVTCVVVDVSHEDPEVKFNWYVDGVEVHNAKTKPREEQYNSTYRVVSVLTVLHQDWLNGKEYKCAVSNKALPAPIEKTISKAKGQPREPQVYTLPPSRDELTKNQVSLTCLVKGFYPSDIAVEWESNGQPENNYKTTPPVLDSDGSFFLYSKLTVDKSRWQQGNVFSCSVMHEALHNHYTQKSLSLSPGGGGSPSSYVLTQPPSVSVAPGQTARITCGGNNIGSKSVNWFQQKPGQAPVLVVYDDSGRPSGVPSRFSGSTSGNTATLTISRVEAGDEADYYCQVWDSSSDHVVFGGGTKLTVLGGGGSGGGGSGGGGSGGGGSQVQLVESGGGVVQPGRSLRLSCAASGFTLSYYGMHWVRQAPGKGLEWVAAISHDGSDKYYADSVKGRFTISRDNSKNTLYLQMNSLRAEDTAVYYCSNDQFDPWGQGTLVTVSSR
notes: as for B2
- OX40 Reporter Assay EC50 [1]: 0.019 nM
- OX40 Reporter Assay Max induction [1]: 6.17e+06
- 4-1BB Reporter Assay EC50 [2]: 0.014 nM
- 4-1BB Reporter Assay Max induction [2]: 1.45e+06
- Kd [3]: < 1 nM
- koff [3]: 0.00057 s⁻¹
- kon [3]: 790000 M⁻¹ s⁻¹
- Kd [4]: < 1 nM
- koff [4]: 0.00031 s⁻¹
- kon [4]: 870000 M⁻¹ s⁻¹
- Kd [5]: 17 nM
- koff [5]: 0.0045 s⁻¹
- kon [5]: 260000 M⁻¹ s⁻¹
- Kd [6]: 77 nM
- koff [6]: 0.008 s⁻¹
- kon [6]: 100000 M⁻¹ s⁻¹
- EC50 (read off the curve) [7]: ~0.3 nM
- EC50 (read off the curve) [8]: 1 to 2 nM
